Experimental data published in patent publication US20260217845A1 (published 2026).
Blank lines part the entries; values can stand above or below the binder they belong to.

How the values were obtained:
[1] = target: T1, human TNFR2 (extracellular domain) (UniProt P20333 23-257); assay: SPR
T1 chain: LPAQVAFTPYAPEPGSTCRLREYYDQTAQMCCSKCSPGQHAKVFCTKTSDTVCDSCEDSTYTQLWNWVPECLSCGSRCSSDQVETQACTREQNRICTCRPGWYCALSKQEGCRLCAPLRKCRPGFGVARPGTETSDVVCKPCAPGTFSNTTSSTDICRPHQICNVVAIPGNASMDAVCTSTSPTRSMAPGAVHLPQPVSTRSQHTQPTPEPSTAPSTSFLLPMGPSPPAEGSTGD

[2] = target: T1, human TNFR2 (extracellular domain); assay: binding affinity
[3] = target: T1, human TNFR2 (extracellular domain); assay: SPR
[4] = target: T1, human TNFR2 (extracellular domain); assay: binding affinity; marked * on sheet
[5] = target: T1, human TNFR2 (extracellular domain); assay: SPR
[6] = target: T1, human TNFR2 (extracellular domain); assay: SPR
[7] = target: T1, human TNFR2 (extracellular domain); assay: SPR

Kd [2]: 19 nM | Kd [6]: 19 nM
B4: ODY-31D6 (VHH)
VHH: EVQLVESGGGLVQAGGSLRLSCAASGSIVSTNGMGWHRQVPGKGRELVAGIRSDGFTNYADSVKGRFTISSDNVKNTVYLQMNSLKAEDSGVYFCYYQALSSPNYGQTFWGQGTQVTVSS

Kd [2]: 7.9 nM | Kd [7]: 7.9 nM
B5: ODY-31G3 (VHH)
VHH: EVQLVESGGGLVQAGGSLRVSCAASGSIFRADAMGWHRQVPGKPREFVAGIRSDGFTNYAEAVKGRFTISWDTVKNTVYLQMNSLKPEDTAVYTCYYQSLSSPNYGQVFWGQGTQVTVSS

Second part, the binder before the results:

B1: ODY-33D4 (VHH)
VHH: EVQLVESGGGLVQAGGSLRLSCAASGRTFSDYGMGWFRQAPGKDSEFVAAINWSNGRTNYADSVKGRFTISRDNAKNTGYLEMNSLKVEDTAVYYCAATPSGKAYSYWGQGTQVTVSS
Kd [1]: 5.6 nM | Kd [2]: 5.6 nM

B2: ODY-35A10 (VHH)
VHH: EVQLVESGGGLVEAGGSLRLSCAASGRTFGSYTMGWFRQAPGREQEFLASIRRTGGSTSYADSVKGRFTISRDNAKKAVYLQMNSLKPEDTAVYYCAAAPTGRAFTYWGQGTQVTVSS
Kd [3]: 48 nM | Kd [4]: 48 nM

B3: ODY-37C7 (VHH)
VHH: EVQLVESGGGLVQPGGSLRLSCAASGFTFDDIAMTWVRQAPGKGLEWVSSIYSYGPNTYYADSVKGRFTISTDSAKNTLYLQMNSLKPEDTAVYYCAADSDLSTVVVGPHDYWGQGTQVTVSS
Kd [5]: 13 nM | Kd [2]: 13 nM
